Reference: paper PMC5599369

Target: gramicidin A (Bacillus brevis)
Experiment: single-channel electrophysiology

Which channel (dimer) lifetime does the source give for gramicidin A (peptide) here?
The channel (dimer) lifetime was under 3 ms.
